From patent US20240425569A1 (VISTERRA, published 2024)
Numbering of substitutions follows the chain as printed. In names and notes the source's numbering stands. Where two headings read alike, the source gives them in different places.

Tests used:
[1] = target: T1, EDIII-DV1 (E protein domain III of dengue virus serotype DV-1) (dengue virus serotype DV-1, UniProt P17763 573-680)
T1 construct: also called DENV-1; EDIII of DV-1
T1 chain: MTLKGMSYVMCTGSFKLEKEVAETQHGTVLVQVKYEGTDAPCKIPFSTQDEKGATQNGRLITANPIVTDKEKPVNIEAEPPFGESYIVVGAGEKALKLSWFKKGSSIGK

[2] = target: T2, EDIII-DV2 (E protein domain III of dengue virus serotype DV-2) (dengue virus serotype DV-2, UniProt P14337 573-677)
T2 construct: also called DENV-2; EDIII of DV-2

[3] = target: T3, EDIII-DV3 (E protein domain III of dengue virus serotype DV-3) (dengue virus serotype DV-3, UniProt P27915 571-678)
T3 construct: also called DENV-3; EDIII of DV-3

[4] = target: T4, EDIII-DV4 (E protein domain III of dengue virus serotype DV-4) (dengue virus serotype DV-4, UniProt P09866 572-679)
T4 construct: also called DENV-4

[5] = target: T4, EDIII-DV4 (E protein domain III of …); assay: affinity for EDIII, table of FIG. 4; method not stated
[6] = target: T5, Nicaragua/2010 (serotype III EDIII)
T5 construct: also called ED3-DV3/Nicaragua10; DENV-3 Nic
T5 E protein domain III (EDIII): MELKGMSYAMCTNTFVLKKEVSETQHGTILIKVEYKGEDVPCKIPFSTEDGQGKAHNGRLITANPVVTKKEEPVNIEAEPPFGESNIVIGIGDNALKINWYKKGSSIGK

[7] = target: T1, EDIII-DV1 (E protein domain III of …); assay: competition ELISA
[8] = target: T2, EDIII-DV2 (E protein domain III of …); assay: competition ELISA
[9] = target: T3, EDIII-DV3 (E protein domain III of …); assay: competition ELISA
[10] = target: T4, EDIII-DV4 (E protein domain III of …); assay: competition ELISA; column 'EDIII-DV4'
[11] = target: T3, EDIII-DV3 (E protein domain III of …); remark: listed apart in the source
[12] = target: T4, EDIII-DV4 (E protein domain III of …); remark: listed apart in the source
[13] = target: T4, EDIII-DV4 (E protein domain III of …); remark: listed apart in the source
[14] = target: T4, EDIII-DV4 (E protein domain III of …); remark: listed apart in the source
[15] = target: T6, Philippines/1956 (H87)* (serotype III EDIII) (Dengue virus 3)
T6 construct: isolated EDIII protein

[16] = target: T4, EDIII-DV4 (E protein domain III of …); assay: competition ELISA; column 'EDIII-DV4 [1/7]'
[17] = target: T7, New Guinea/1944 (NGC)* (serotype II EDIII) (Dengue virus 2); assay: Kd table, method not stated; Ag DENV-2 NGC
T7 construct: isolated EDIII protein; also called EDIII of DENV-2 NGC

[18] = target: T8, Singapore/2009 (serotype III EDIII)
T8 construct: also called ED3-DV3/Sing09; DENV-3 Sing
T8 E protein domain III (EDIII): T5 E protein domain III (EDIII) with T12Q, T14A, V40A, N94K

[19] = target: ED3-DV4/H241/Phil56 (EDIII of DENV-4 strain H241) (dengue virus serotype DENV-4, strain …, UniProt Q58HT7 572-679); assay: Kd table, method not stated; Ag DENV-4 Phil
[20] = target: T9, Peru/1995 (serotype II EDIII); assay: Kd table, method not stated; Ag DENV-2 Peru
T9 construct: also called ED3-DV2/Peru95; DENV-2 Peru

[21] = target: T10, New Caledonia/2009 (serotype IV EDIII); assay: Kd table, method not stated; Ag DENV-4 NC
T10 construct: also called ED3-DV4/NewCal09; DENV-4 NC
T10 E protein domain III (EDIII): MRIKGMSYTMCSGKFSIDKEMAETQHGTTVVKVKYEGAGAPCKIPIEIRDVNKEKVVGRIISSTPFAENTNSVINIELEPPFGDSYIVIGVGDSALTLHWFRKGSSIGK

[22] = target: T11, Singapore/2008 (serotype II EDIII); assay: Kd table, method not stated; Ag DENV-2 Sing
T11 construct: also called ED3-DV2/Sing08; DENV-2 Sing

[23] = target: T12, Mexico/1977 (BC287/97)* (serotype IV EDIII) (Dengue virus 4); assay: Kd table, method not stated; Ag DENV-4 BC2
T12 construct: isolated EDIII protein; also called EDIII of DENV-4 Mexico/1997 (BC287/97); DENV-4 BC2

[24] = target: T1, EDIII-DV1 (E protein domain III of …); assay: SPR (FIG. 9), by context
[25] = target: T13, Singapore/2010 (serotype IV EDIII); assay: Kd table, method not stated; Ag DENV-4 Sing
T13 construct: also called ED3-DV4/Sing10; DENV-4 Sing
T13 E protein domain III (EDIII): T10 E protein domain III (EDIII) with I44V, I74T

B1: antibody B48+A98V (antibody, V domains shown)
VH: QVQLVQSGAEVKKPGASVKVSCKAGFNIKDTYMSWVRQAPEQGLEWMGRIDPENGDTKYDPKLQGRVTMTADTSTNTAYMELRSLRSDDTAVYYCVRGWEGFAYWGQGTLVTVSS
VL: DIVMTQSPASLAVSLGERATISCRASENVDKYGNSFMHWYQQKPGQPPKLLIYRASELQWGVPDRFSGSGSGTDFTLTISSLQAEDVAVYYCQRSNEVPWTFGQGTKLEIK
In the case of B1, the Kd [1] is reported as < 0.1 nM, the Kd [2] is reported as < 0.1 nM and the Kd [3] is reported as 5.06 nM. The Kd [4] was 9.26 nM and the “fold improvement in binding relative to antibody B48” value [5] was ~5 fold.

B2: antibody C88 (antibody, V domains shown)
VH: QVQLVQSGAEVKKPGASVKVSCKASGFNIKDVYMSWVRQAPEQGLEWMGRIDPENGDTKYDPKLQGRVTMTADTSTNTAYMELRSLRSDDTAVYYCARGWEGFAYWGQGTLVTVSS
VL: B1 VL
For B2, the Kd [6] was 3.2 nM, the Kd [7] was < 0.1 nM and the Kd [8] was < 0.1 nM. For the same binder, the Kd [9] was 1.06 nM, the Kd [10] was 15.4 nM and the Kd [11] was 0.97 nM. The Kd [12] was 23.8 nM, the Kd [13] was 13 nM and the Kd [14] was 13 nM. The Kd [15] was 1.5 nM, the Kd [16] was 13 nM and the Kd [17] was < 0.1 nM. The Kd [18] was 1 nM, the Kd [19] was 234 nM and the Kd [20] was 0.38 nM. For the same binder, the Kd [21] was 11.3 nM, the Kd [22] was < 0.1 nM and the Kd [23] was 10.6 nM. The “fold greater affinity than C98” value [24] was ~20 fold and the Kd [25] was 15 nM.
